Measurements as given in PMC5820184 (Proteins, 2017).

Tests used:
Test in all cases: crystal structure
[1] = target: Snake Atadenovirus 1 LH3 protein (snake adenovirus 1)
[2] = target: Sorbitol dehydrogenase (BjSDH) from Bradyrhizobium japonicum (Bradyrhizobium japonicum)
crystal structure = target: the molecule itself

**Q.** How did the stoichiometry N [1] turn out when “Snake Atadenovirus 1 LH3 protein (natural protein)” was run?
**A.** 3

**Q.** How did the stoichiometry N [2] turn out when “Sorbitol dehydrogenase (BjSDH) from Bradyrhizobium japonicum (enzyme)” was run?
**A.** 4

B1: FliD_(78-405), flagellar cap protein from Pseudomonas aeruginosa PAO1 (domain or fragment)
chain: NEDILKASATQSAVAGTYQIQVNSLATSSKIALQAIADPANAKFNSGTLNISVGDTKLPAITVDSSNNTLAGMRDAINQAGKEAGVSATIITDNSGSRLVLSSTKTGDGKDIKVEVSDDGSGGNTSLSQLAFDPATAPKLSDGAAAGYVTKAANGEITVDGLKRSIASNSVSDVIDGVSFDVKAVTEAGKPITLTVSRDDAGVKDNVKKFVEAYNTLTKFINEQTVVTKVGEDKNPVTGALLGDASVRALVNTMRSELIASNENGSVRNLAALGITTTKDGTLEIDEKKLDKAISADFEGVASYFTGDTGLAKRLGDKMKPYTDAQGI
**Q.** B1 was tested. Which “stoichiometry N” value (crystal structure) did it give?
**A.** 6
